# Laboratory results reported in the DeepSol protein solubility set.
# Test: soluble on expression in E. coli; label from the status in PepcDB or PDB records
row,Sequence,soluble on expression in E. coli
1,MKKMLTFLTTCALSFGVSAQSWEETTEKARGQTVYFHAWGGSQEINSYLRWSADLLKSRYGVTLQHVKVTDIAETTTRLIAEKAAGKNEQGSVDLVWINGENFKSMKNNQLLYGPFVEDLPNWPKVDKSLPVDSDFSEPTEGLEAPWGVGQLVFIHDKQQVNNPPASFAELLSYAQAFPNRISYPQPPEFHGTSFLKAALIELTHYAPELNQAVEPATFEQLTQPLWQYLDELHAVAWRKGKQFPAGSAQMMQLLDDGQLDLAITFNPNAVFSAQATGKLAPTAQSYAMKKGALTNIHFLAIPWNANAKEGALVAINFLLSDEAQSRKGDLSIWGDPSILKPQFLTGSAKNTILFPAIAEPHPSWQSALEAEWQKRYGNSLK,not soluble
2,MIVMTKQQYQEILEHSRNALPNEACGLLGGRIENGVKYVEKVYLLRNIDESPEHFSMNPKEQFAAVKDMRNNGWELLGNFHSHPATPSRPSEEDIRLAFDPKASYLILSLKDDTPVLKSFNISSGQATQEELSIVGEEALEHHHHHH,soluble
3,MNIQNPVLKGFNPDPSIVRAGDDYYIATSTFEWFPGVQIHHSKDLVHWHLVAHPLSTTEFLDMKGNPDSGGIWAPDLSYADGKFWLIYTDVKVVDGMWKDCHNYLTTAEDIKGPWSKPILLNGAGFDASLFHDPSGKKYLVNMYWDQRVYHHNFYGIALQEYSVAEEKLIGKPEIIYKGTDIAYTEGPHLYYINDMYYLMTAEGGTTYQHSETIARSKTIHGPYEIQPDYPLLSAWKEVHNPLQKCGHASLVETQNGQWYLAHLTGRPLPAPAGFPSREREQHAFCPLGRETAIQKIEWQDGWPVVVGGQQGSLEVEAPDLPQQEWAPTYEERDDFDKDTLNINFQTLRIPFSEHLGSLTARPGFLRLYGRESLQSKFTQAHIARRWQSFNFDAGTSVEFSPNSFQQMAGLTCYYNTENWSSIHVTWNEEKGRIIDLVTADNGTFSMPLAGAEIPIPDEVKTVHFKVSVRGRIYQYAYSFDGETFHTLPIELPSWKLSDDYVRGGGFFTGAFVGINAIDITGTALPADFDYFTYKELD,soluble
4,SASSIICQEHCQISGQAKIDILLVGDVTVGYLADTVQKLFANIAEVTITISDTKEAAALLDDCIFNMVLLKVPSSLSAEELEAIKLIRFGKKKNTHSLFVFIIPENFKGCISGHGMDIALTEPLTMEKMSNVVKYWTTCPSNTVKTENATGPEELGLPLQRSYSEHLGYFPTDLFACSESLRNGNGLELNASLSEFEKNKKISLLHSSKEKLRRLYRKHSSFCFW,soluble
5,MQPTLGAQAGSMLFRDASGRYCASLAGYRFLSAFQPIFYKGGSLFGHEALLRVVDEGGEWRPPDRFLASLAPGMALEADRLARLIHVRNFAQSGQGGCLCLNLMPATVQEDQSGRTHLPLLNSMLQSVELDSGGVIFELPEFDVEHHGQPLLQGMRHAADMGFGLAVDDFGALPARRDKMGELCPDIIKIDRSLLLDYMAGQTQRLPALLEFGWQIGSRMLVEGIETAEQLEAMRALGVELYQGYYLGRPGELPVLRQL,not soluble
6,MLSEGTHLRPYETLGAHADTMDGVTGTRFSVWAPNARRVSVVGQFNYWDGRRHPMRLRKESGIWELFIPGAHNGQLYKYEMIDANGNLRLKSDPYAFEAQMRPETASLICGLPEKVVQTEERKKANQFDAPISIYEVHLGSWRRHTDNNFWLSYRELADQLVPYAKWMGFTHLELLPINEHPFDGSWGYQPTGLYAPTRRFGTRDDFRYFIDAAHAAGLNVILDWVPGHFPTDDFALAEFDGTNLYEHSDPREGYHQDWNTLIYNYGRREVSNFLVGNALYWIERFGIDALRVDAVASMIYRDYSRKEGEWIPNEFGGRENLEAIEFLRNTNRILGEQVSGAVTMAEESTDFPGVSRPQDMGGLGFWYKWNLGWMHDTLDYMKLDPVYRQYHHDKLTFGILYNYTENFVLPLSHDEVVHGKKSILDRMPGDAWQKFANLRAYYGWMWAFPGKKLLFMGNEFAQGREWNHDASLDWHLLEGGDNWHHGVQRLVRDLNLTYRHHKAMHELDFDPYGFEWLVVDDKERSVLIFVRRDKEGNEIIVASNFTPVPRHDYRFGINQPGKWREILNTDSMHYHGSNAGNGGTVHSDEIASHGRQHSLSLTLPPLATIWLVREAE,soluble
7,VPQQSATKLVQQWQPLLQRWGELAGVEIKFATARDIPTFEARLMAGEYDIAYMNPYHFTLVNQTPGYTALARAKNKRITGIIVARKGQSVTLDDLQEETIAFPAPRAFAASIITQSELEQKGIKFTPKYVGSHD,not soluble
8,MYLQLLKPTLLRCSTRPSSSGAYTRSPIDQKWAAMAKKAMKGREADTLTWNTPEGIPIKPLYLRSDRDCDAQRSVELPGQFPFTRGPYPTMYTQRPWTIRQYAGFSTVEESNKFYKENIKAGQQGLSVAFDLATHRGYDSDNPRVFGDVGMAGVAVDSVEDMRQLFDGINLEKMSVSMTMNGAVVPVLAMYVVAAEEAGVSRKLLAGTIQNDILKEFMVRNTYIYPPEPSMRIIGDIFAYTSREMPKFNSISISGYHMQEAGADAVLEMAFTIADGIQYCETGLNAGLTIDAFAPRLSFFWGISMNFYMEIAKMRAARRLWANLIKERFSPKSDKSMMLRTHSQTSGWSLTEQDPYNNIIRTTIEAMASVFGGTQSLHTNSFDEALGLPTKFSARIARNTQIIIQEESGICNVADPWGGSYMMESLTDEIYEKALAVIKEIDELGGMAKAVASGMTKLKIEEAAAKKQARIDAGKDVIVGVNKYRLDHEQQVEVLKIDNAKVREEQCAKLNHIRATRDAEKAQKALDAITEGARGNGNLMELAIEAARARCTVGEISDAMEKVFNRHAAVNRLVSGAYKSEFGETSEMSQVLERVKSFADRDGRQPRIMVAKMGQDGHDRGAKVIATGFADLGFDVDVGPLFQTPLEAAQQAVDADVHVIGASSLAAGHLTLIPQLIGELKKLGRPDILVVAGGVIPPQDYKELYDAGVALVFGPGTRLPACANQILEKLEANLPEAPGKAASR,not soluble
9,MRSKLNQYNQKRNFTRTLEPEGITEMPQEGLRFVVQHHLARRDHYDLRLEWDGAMLSWAVPKGPSYNTWDKRLAVQVEDHPLEYRHFEGTIPKGEYGGGVVMLWDEGFWEPYVDVDGGLHEGMLKFVLKGRRLKGRWALVRMKGKAGDKKDNWLLLKEKDDYVQTADGISQFTTSLEHHHHHH,not soluble
10,MSQRGLEALLRPKSIAVIGASMKPNRAGYLMMRNLLAGGFNGPVLPVTPAWKAVLGVLAWPDIASLPFTPDLAVLCTNASRNLALLEELGEKGCKTCIILSAPASQHEDLRACALRHNMRLLGPNSLGLLAPWQGLNASFSPVPIKRGKLAFISQSAAVSNTILDWAQQREMGFSYFIALGDSLDIDVDELLDYLARDSKTSAILLYLEQLSDARRFVSAARSASRNKPILVIKSGRSPAAQRLLNTTAGMDPAWDAAIQRAGLLRVQDTHELFSAVETLSHMRPLRGDRLMIISNGAAPAALALDALWSRNGKLATLSEETCQKLRDALPGHVAISNPLDLRDDASSEHYVKTLDILLHSQDFDALMVIHSPSAAAPATEIAQVLIEAVKHHPRSKYVSLLTNWCGEHSSQEARRLFSEAGLPTYRTPEGTITAFMHMVEYRRNQKQLRETPALPSNLTSNTAKAHLLLQQAIAEGATSLDTHEVQPILQSYGMNTLPTWIASDSTEAVHIAEQIGYPVALKLRSPDIPHKSEVQGVMLYLRTANEVQQAANAIFDRVKMTWPQARVHGLLVQSMANRAGAQELRVVVEHDPVFGPLIMLGEGGVEWRPEDQAVVALPPLNMNLARYLVIQGIKSKKIRARSALRPLDVAGLSQLLVQVSNLIVDCPEIQRLDIHPLLASGSEFTALDVTLDIAPFEGDNESRLAVRPYPHQLEEWVELKNGERCLFRPILPEDEPQLQQFISRVTKEDLYYRYFSEINEFTHEDLANMTQIDYDREMAFVAVRRIDQTEEILGVTRAISDPDNIDAEFAVLVRSDLKGLGLGRRLMEKLITYTRDHGLQRLNGITMPNNRGMVALARKLGFNVDIQLEEGIVGLTLNLAQREES,not soluble
11,GSPEFMDDIFTQCREGNAVAVRLWLDNTENDLNQGDDHGFSPLHWACREGRSAVVEMLIMRGARINVMNRGDDTPLHLAASHGHRDIVQKLLQYKADINAVNEHGNVPLHYACFWGQDQVAEDLVANGALVSICNKYGEMPVDKAKAPLRELLRERAEKMGQNLNRIPYKDTFWKGTTR,soluble
12,MGSDKIHHHHHHMERYSGRIFDNHFHLNPKSNFLGAANIFKRSGGTTLNLTNLPSHDAITEYYRRLYDDTIRIGDLVHYELGLEMLITIGPYPFDYFFFERYGSDPVNEMMHGLDLAAKYIEDGKAEAIGEIGFPHVPQPESVMERFWEMLDYAMKIAHDVDAPIVMHTYDLSCEDYAKIEKIAKVNGSVSVVKHHARPSDLTCNTGIARSVPASRSAVRKSLLLSRNFMLETDFINDPIDANRFLPPDSVPKRAQMILQEYDDGSEILNNIFNTIPESIYPKLKEKR,not soluble
13,MSLDSKIDILIVVNMFLTGFDSKVLNTLYVDKNLMYHDLIQAYSRTNRVEKESKPFGKIVNYRDLKKETDDALRVFSQTNDTDTILMRSYEEYKKEFMDAYRELKMIVPTPHMVDDIQDEEELKRFVEAYRLLAKIILRLKAFDEFEFTIDEIGMDEQENEDYKSKYLAVYDQVKRATAEKNKVSILNDIDFEIEMMRNDTINVNYIMNILRQIDLEDKAEQREGHHHHHH,soluble
14,MSLSKNKYLFKYLIVDRKKLDPSYTYKYDNIQWNHKIIAIGDIHGDVESLKLILRHSNLIDENDEWIAEDVMLVQVGDILDRGVFGTYIYDYLLKLQKDAIKKNSKVILIMGNHEQLNLCGAFHYVNESEVMLFFQNNRNNRLFSFTNKNGYYFKKLIRLPVIVKINNIIFTHGGISKHMSEYDINTINLKTRLQIENKCKMFQFEKYNYLSKEGVLWNNEISHQVKLQPKKTCKHLRNILKKYNAKGLVVGHTRQKSHEIQTYCNNSFFLIDTGMSLFMNNGQPYPNYLQIEKGKFKTVHLIVQEYNRKEGHHHHHH,not soluble
15,MNQSDVLSNSMKQATINNEAHVIIDDIDTAHKELDILQQEVDKVIFGQNHVIEYALTSILAGGHALLVGVPGLAKTRLVETLGIVLGLDEKRIQFTPDLMPSDIIGSEIMDSDKSGKRSFRYLQGPIFTQLLMADEINRASPRTQSALLQAMQEYHVTVAGTRYDLPQPFHVLATQNPLEQEGTYPLPEAQLDRFLMQIDIDYPDLTTERRIILDTTGGKNQNAKPVLSAKTLQKIQKIVRKMPISENVVEAILKLVRSARPHKENSLANTYVAWGPGPRASQALSLCARARALYHGRLSPSLDDIATLACPVLQHRMALNFSARAENITIKDIIDNLVKDAL,not soluble
16,MGHHHHHHSHMNKHQKPVLTGQRFKTRKRDEKEKFEPTVFRDTLVQGLNEAGDDLEAVAKFLDSTGSRLDYRRYADTLFDILVAGSMLAPGGTRIDDGDKTKMTNHCVFSANEDHETIRNYAQVFNKLIRRYKYLEKAFEDEMKKLLLFLKAFSETEQTKLAMLSGILLGNGTLPATILTSLFTDSLVKEGNEAPVFSPVRQQKKNKVTDS,not soluble
17,MILPDRKQILDRELIRRIADTTISGSGHSDGLSEYASIRKAAFAFVESAVLGDQAYSPIENAELAFIVWILAALDENIITARTIIKARDTVEKQLRLVEHYEDLEEFGSRLGIEISVFGEQIGKDHLYRIGVADFATYASRVTGSKYRLSNQIVREGYVYVDEDVMAKVLREAFVSFMFDTLDQIRKEDAIETIKSVLDDLEKIRESYRKAHNVRMIAGKGDASMFPPCMKEIIKNLESGVNVSHMGRLALASFLHKAGYSEDEIVPYFRNAPDFDENITRYQIKHISGEISGTEYTPPKCETMRSNHLCYMDDDPLCHREWMKHPLTYYEVKRRNRKIRLEHHHHHH,soluble
18,MSLYRDSKRKIIRDLQKQDIQYVEYGDTRTLIIPTDKYFMFSSPRLNEICYPGLNNVIRLLNFYPQSTIYVAGFTDNVGSRSHKRKLSQAQAETMMTFLWANGIAAKRLKAEGYGDKNAISDNAIIHGSAQNRRIEIQWFTSPAQPPQPQMAYVKEGHHHHHH,soluble
